Test results from patent KR20200059381A.

Tests used:
[1] = target: 구제역 바이러스 혈청형 O 배양액(cal1~cal4) (Foot-and-mouth disease virus serotype O); experiment: sandwich ELISA, cal1, 1E58 coat 2 ug/ml, 1E58-HRP 0.2 ug/ml, 450 nm
[2] = target: 구제역 바이러스 혈청형 O 배양액(cal1~cal4) (Foot-and-mouth disease virus serotype O); experiment: sandwich ELISA, cal2, 1E58 coat 1 ug/ml, 1E58-HRP 0.4 ug/ml, 450 nm
[3] = target: 구제역 바이러스 혈청형 O 배양액(cal1~cal4) (Foot-and-mouth disease virus serotype O); experiment: sandwich ELISA, cal2, 1E58 coat 8 ug/ml, 1E58-HRP 0.2 ug/ml, 450 nm
[4] = target: 구제역 바이러스 혈청형 O 배양액(cal1~cal4) (Foot-and-mouth disease virus serotype O); experiment: sandwich ELISA, cal3, 1E58 coat 1 ug/ml, 1E58-HRP 0.4 ug/ml, 450 nm
[5] = target: 구제역 바이러스 혈청형 O 배양액(cal1~cal4) (Foot-and-mouth disease virus serotype O); experiment: sandwich ELISA, cal4, 1E58 coat 8 ug/ml, 1E58-HRP 0.8 ug/ml, 450 nm
[6] = target: 구제역 바이러스 혈청형 O 배양액(cal1~cal4) (Foot-and-mouth disease virus serotype O); experiment: sandwich ELISA, cal1, 1E58 coat 8 ug/ml, 1E58-HRP 0.6 ug/ml, 450 nm
[7] = target: 구제역 바이러스 혈청형 O 배양액(cal1~cal4) (Foot-and-mouth disease virus serotype O); experiment: sandwich ELISA, cal1, 1E58 coat 4 ug/ml, 1E58-HRP 0.6 ug/ml, 450 nm
[8] = target: 구제역 바이러스 혈청형 O 배양액(cal1~cal4) (Foot-and-mouth disease virus serotype O); experiment: sandwich ELISA, cal4, 1E58 coat 8 ug/ml, 1E58-HRP 0.6 ug/ml, 450 nm
[9] = target: 구제역 바이러스 혈청형 O 배양액(cal1~cal4) (Foot-and-mouth disease virus serotype O); experiment: sandwich ELISA, cal3, 1E58 coat 4 ug/ml, 1E58-HRP 0.6 ug/ml, 450 nm
[10] = target: 구제역 바이러스 혈청형 O 배양액(cal1~cal4) (Foot-and-mouth disease virus serotype O); experiment: sandwich ELISA, cal1, 1E58 coat 1 ug/ml, 1E58-HRP 0.6 ug/ml, 450 nm
[11] = target: 구제역 바이러스 혈청형 O 배양액(cal1~cal4) (Foot-and-mouth disease virus serotype O); experiment: sandwich ELISA, cal3, 1E58 coat 2 ug/ml, 1E58-HRP 0.2 ug/ml, 450 nm
[12] = target: 구제역 바이러스 혈청형 O 배양액(cal1~cal4) (Foot-and-mouth disease virus serotype O); experiment: sandwich ELISA, cal3, 1E58 coat 1 ug/ml, 1E58-HRP 0.8 ug/ml, 450 nm
[13] = target: 구제역 바이러스 혈청형 O 배양액(cal1~cal4) (Foot-and-mouth disease virus serotype O); experiment: sandwich ELISA, cal3, 1E58 coat 1 ug/ml, 1E58-HRP 0.2 ug/ml, 450 nm
[14] = target: 구제역 바이러스 혈청형 O 배양액(cal1~cal4) (Foot-and-mouth disease virus serotype O); experiment: sandwich ELISA, cal3, 1E58 coat 2 ug/ml, 1E58-HRP 0.4 ug/ml, 450 nm
[15] = target: 구제역 바이러스 혈청형 O 배양액(cal1~cal4) (Foot-and-mouth disease virus serotype O); experiment: sandwich ELISA, cal1, 1E58 coat 8 ug/ml, 1E58-HRP 0.2 ug/ml, 450 nm
[16] = target: 구제역 바이러스 혈청형 O 배양액(cal1~cal4) (Foot-and-mouth disease virus serotype O); experiment: sandwich ELISA, cal4, 1E58 coat 2 ug/ml, 1E58-HRP 0.4 ug/ml, 450 nm
[17] = target: 구제역 바이러스 혈청형 O 배양액(cal1~cal4) (Foot-and-mouth disease virus serotype O); experiment: sandwich ELISA, cal1, 1E58 coat 1 ug/ml, 1E58-HRP 0.8 ug/ml, 450 nm
[18] = target: 구제역 바이러스 혈청형 O 배양액(cal1~cal4) (Foot-and-mouth disease virus serotype O); experiment: sandwich ELISA, cal1, 1E58 coat 2 ug/ml, 1E58-HRP 0.8 ug/ml, 450 nm
[19] = target: 구제역 바이러스 혈청형 O 배양액(cal1~cal4) (Foot-and-mouth disease virus serotype O); experiment: sandwich ELISA, cal3, 1E58 coat 1 ug/ml, 1E58-HRP 0.6 ug/ml, 450 nm
[20] = target: 구제역 바이러스 혈청형 O 배양액(cal1~cal4) (Foot-and-mouth disease virus serotype O); experiment: sandwich ELISA, cal2, 1E58 coat 8 ug/ml, 1E58-HRP 0.8 ug/ml, 450 nm
[21] = target: 구제역 바이러스 혈청형 O 배양액(cal1~cal4) (Foot-and-mouth disease virus serotype O); experiment: sandwich ELISA, cal1, 1E58 coat 2 ug/ml, 1E58-HRP 0.6 ug/ml, 450 nm
[22] = target: 구제역 바이러스 혈청형 O 배양액(cal1~cal4) (Foot-and-mouth disease virus serotype O); experiment: sandwich ELISA, cal1, 1E58 coat 4 ug/ml, 1E58-HRP 0.4 ug/ml, 450 nm
[23] = target: 구제역 바이러스 혈청형 O 배양액(cal1~cal4) (Foot-and-mouth disease virus serotype O); experiment: sandwich ELISA, cal1, 1E58 coat 2 ug/ml, 1E58-HRP 0.4 ug/ml, 450 nm
[24] = target: 구제역 바이러스 혈청형 O 배양액(cal1~cal4) (Foot-and-mouth disease virus serotype O); experiment: sandwich ELISA, cal2, 1E58 coat 4 ug/ml, 1E58-HRP 0.4 ug/ml, 450 nm
[25] = target: 구제역 바이러스 혈청형 O 배양액(cal1~cal4) (Foot-and-mouth disease virus serotype O); experiment: sandwich ELISA, cal1, 1E58 coat 8 ug/ml, 1E58-HRP 0.4 ug/ml, 450 nm
[26] = target: 구제역 바이러스 혈청형 O 배양액(cal1~cal4) (Foot-and-mouth disease virus serotype O); experiment: sandwich ELISA, cal2, 1E58 coat 1 ug/ml, 1E58-HRP 0.8 ug/ml, 450 nm
[27] = target: 구제역 바이러스 혈청형 O 배양액(cal1~cal4) (Foot-and-mouth disease virus serotype O); experiment: sandwich ELISA, cal4, 1E58 coat 4 ug/ml, 1E58-HRP 0.4 ug/ml, 450 nm
[28] = target: 구제역 바이러스 혈청형 O 배양액(cal1~cal4) (Foot-and-mouth disease virus serotype O); experiment: sandwich ELISA, cal3, 1E58 coat 4 ug/ml, 1E58-HRP 0.4 ug/ml, 450 nm

B1: 단클론항체 1E58 (antibody, V domains shown)
VH: EFQLQQSRPELAKPGASVKISCKTSGHTFTTYTMHWVKQSHVKSLEWIGCFNPNNGGATYNQKFKGKATLTMDKSSNTAYVEVRSLTSDDSAVYYCAYGNYVNFDYWGQGTTLTVSS
VL: DIVLTQSPASLAVSLGQRATISYRASKSVSTSGYSYMHWNQQKPGQPPRLLIYLVSNLESGVPARFSGSGSGTDFTLNIHPVEEEDAATYYCQHIRELTRSEGGPSWKN
**Q.** What does the source list for B1?
**A.** O.D [1]: 3.12 O.D; O.D [2]: 1.4 O.D; O.D [3]: 1.24 O.D; O.D [4]: 0.77 O.D; O.D [5]: 0.59 O.D; O.D [6]: 3.27 O.D; O.D [7]: 4 O.D; O.D [8]: 0.62 O.D; O.D [9]: 2.15 O.D; O.D [10]: 2.98 O.D; O.D [11]: 0.98 O.D; O.D [12]: 1.17 O.D; O.D [13]: 0.54 O.D; O.D [14]: 1.37 O.D; O.D [15]: 2.35 O.D; O.D [16]: 0.56 O.D; O.D [17]: 3.21 O.D; O.D [18]: 4 O.D; O.D [19]: 0.83 O.D; O.D [20]: 4 O.D; O.D [21]: 3.68 O.D; O.D [22]: 3.15 O.D; O.D [23]: 3.87 O.D; O.D [24]: 3.08 O.D; O.D [25]: 3.18 O.D; O.D [26]: 1.97 O.D; O.D [27]: 0.88 O.D; O.D [28]: 1.78 O.D
